The source of these data is publication PMC10933417.

In data set [1] the target is ZNF827 wild-type;RPA heterotrimer (Homo sapiens;Homo sapiens?, UniProt Q17R98;P27694;P15927;P35244 1-1081;1-616;1-270;1-121, |). The experiment in a line: EMSA; 0.8 mM ZnCl2; intermediate band only with both proteins; RPA partly displaces ZNF827; 20 mM HEPES-KOH pH 7.9, 100 mM KCl, 0.8 mM ZnCl2, 0.2 mM EDTA, 5% glycerol, 0.5 mM DTT, 0.5 mM PMSF, 6.25 ug/mL poly(dI:dC), 50 ng/uL BSA, ~0.5 nM probe, on ice; gel at 4 °C. The following applies: protein: recombinant;recombinant; tags: HaloTag removed by TEV cleavage;; copies: 1;1;1;1; label: 32P (T4 PNK end label). (In EMSA bound probe runs differently from free probe, usually more slowly.)
Chain of ZNF827 wild-type;RPA heterotrimer (P27694 whole entry, chain 2 of 3): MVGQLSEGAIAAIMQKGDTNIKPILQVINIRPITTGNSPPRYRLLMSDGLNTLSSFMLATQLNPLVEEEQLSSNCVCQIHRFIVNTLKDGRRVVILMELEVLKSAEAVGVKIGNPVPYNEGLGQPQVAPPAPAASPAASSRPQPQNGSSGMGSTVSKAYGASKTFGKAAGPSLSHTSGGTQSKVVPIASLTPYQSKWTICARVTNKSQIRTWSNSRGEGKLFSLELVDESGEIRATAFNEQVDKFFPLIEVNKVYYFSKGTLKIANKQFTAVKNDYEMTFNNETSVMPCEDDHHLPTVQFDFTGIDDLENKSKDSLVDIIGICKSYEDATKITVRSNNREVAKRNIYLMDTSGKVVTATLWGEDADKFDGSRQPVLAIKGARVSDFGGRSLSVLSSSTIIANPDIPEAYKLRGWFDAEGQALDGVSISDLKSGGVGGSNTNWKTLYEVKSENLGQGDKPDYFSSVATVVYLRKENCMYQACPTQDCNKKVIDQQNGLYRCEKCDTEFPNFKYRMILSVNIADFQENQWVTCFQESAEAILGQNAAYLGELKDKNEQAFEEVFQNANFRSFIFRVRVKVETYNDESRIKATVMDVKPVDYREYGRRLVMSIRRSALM
Chain of ZNF827 wild-type;RPA heterotrimer (P15927 whole entry, chain 3 of 3): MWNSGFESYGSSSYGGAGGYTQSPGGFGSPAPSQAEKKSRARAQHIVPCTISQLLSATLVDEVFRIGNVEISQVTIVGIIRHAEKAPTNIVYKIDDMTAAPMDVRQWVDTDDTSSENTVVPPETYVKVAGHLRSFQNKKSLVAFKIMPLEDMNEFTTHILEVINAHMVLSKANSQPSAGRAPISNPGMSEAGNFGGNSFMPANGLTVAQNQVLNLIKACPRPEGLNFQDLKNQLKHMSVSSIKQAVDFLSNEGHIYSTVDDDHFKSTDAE
Chain of ZNF827 wild-type;RPA heterotrimer (P35244 whole entry, chain 4 of 3): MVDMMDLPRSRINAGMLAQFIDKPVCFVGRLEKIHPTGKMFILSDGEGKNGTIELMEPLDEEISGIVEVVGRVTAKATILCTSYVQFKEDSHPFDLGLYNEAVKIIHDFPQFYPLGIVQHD

Data set [2] has as its target T1, ZNF827 ZnFΔ1-3 (Homo sapiens, UniProt Q17R98 1-373+456-1081, internal_change).
T1 sequence: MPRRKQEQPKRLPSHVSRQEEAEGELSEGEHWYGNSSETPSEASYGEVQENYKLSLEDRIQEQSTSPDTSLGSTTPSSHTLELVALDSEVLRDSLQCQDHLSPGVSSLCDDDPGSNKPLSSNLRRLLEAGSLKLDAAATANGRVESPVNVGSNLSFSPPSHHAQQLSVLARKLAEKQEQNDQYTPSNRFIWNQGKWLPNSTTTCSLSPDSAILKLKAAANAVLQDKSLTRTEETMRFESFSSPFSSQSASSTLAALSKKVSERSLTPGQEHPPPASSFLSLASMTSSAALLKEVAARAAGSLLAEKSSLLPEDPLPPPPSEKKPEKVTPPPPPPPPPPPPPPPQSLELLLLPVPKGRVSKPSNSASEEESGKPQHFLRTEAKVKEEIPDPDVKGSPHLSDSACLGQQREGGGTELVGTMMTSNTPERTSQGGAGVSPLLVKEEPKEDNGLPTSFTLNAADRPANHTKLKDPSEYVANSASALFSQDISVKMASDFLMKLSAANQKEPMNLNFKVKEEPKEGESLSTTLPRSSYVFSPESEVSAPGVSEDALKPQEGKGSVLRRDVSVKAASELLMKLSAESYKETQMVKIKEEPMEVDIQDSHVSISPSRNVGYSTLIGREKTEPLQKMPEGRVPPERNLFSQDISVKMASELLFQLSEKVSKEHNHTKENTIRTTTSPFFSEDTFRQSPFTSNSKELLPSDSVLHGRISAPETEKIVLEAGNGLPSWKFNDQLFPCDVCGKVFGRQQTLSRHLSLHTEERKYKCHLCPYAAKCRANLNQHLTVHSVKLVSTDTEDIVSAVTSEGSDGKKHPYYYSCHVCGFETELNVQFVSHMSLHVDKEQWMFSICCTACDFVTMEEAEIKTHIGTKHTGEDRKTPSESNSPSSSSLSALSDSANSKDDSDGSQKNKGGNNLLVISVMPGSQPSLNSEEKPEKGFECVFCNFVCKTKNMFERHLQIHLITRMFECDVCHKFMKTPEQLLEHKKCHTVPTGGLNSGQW
Briefly: EMSA; 0.8 mM ZnCl2; 20 mM HEPES-KOH pH 7.9, 100 mM KCl, 0.8 mM ZnCl2, 0.2 mM EDTA, 5% glycerol, 0.5 mM DTT, 0.5 mM PMSF, 6.25 ug/mL poly(dI:dC), 50 ng/uL BSA, ~0.5 nM probe, on ice; gel at 4 °C. The note with it: protein: recombinant, tags: HaloTag removed by TEV cleavage, label: 32P (T4 PNK end label).

Data set [3] deals with RPA heterotrimer (UniProt P27694;P15927;P35244 1-616;1-270;1-121). Described as above. The note with it: protein: recombinant; copies: 1;1;1; label: 32P (T4 PNK end label).
Chain of RPA heterotrimer (P27694 whole entry, chain 1 of 3): as the sequence (P27694 whole entry, chain 2 of 3) above
Chain of RPA heterotrimer (P15927 whole entry, chain 2 of 3): as the sequence (P15927 whole entry, chain 3 of 3) above
Chain of RPA heterotrimer (P35244 whole entry, chain 3 of 3): as the sequence (P35244 whole entry, chain 4 of 3) above
Data set [4] deals with T2, ZNF827 wild-type (Homo sapiens, UniProt Q17R98 1-1081).
T2 sequence: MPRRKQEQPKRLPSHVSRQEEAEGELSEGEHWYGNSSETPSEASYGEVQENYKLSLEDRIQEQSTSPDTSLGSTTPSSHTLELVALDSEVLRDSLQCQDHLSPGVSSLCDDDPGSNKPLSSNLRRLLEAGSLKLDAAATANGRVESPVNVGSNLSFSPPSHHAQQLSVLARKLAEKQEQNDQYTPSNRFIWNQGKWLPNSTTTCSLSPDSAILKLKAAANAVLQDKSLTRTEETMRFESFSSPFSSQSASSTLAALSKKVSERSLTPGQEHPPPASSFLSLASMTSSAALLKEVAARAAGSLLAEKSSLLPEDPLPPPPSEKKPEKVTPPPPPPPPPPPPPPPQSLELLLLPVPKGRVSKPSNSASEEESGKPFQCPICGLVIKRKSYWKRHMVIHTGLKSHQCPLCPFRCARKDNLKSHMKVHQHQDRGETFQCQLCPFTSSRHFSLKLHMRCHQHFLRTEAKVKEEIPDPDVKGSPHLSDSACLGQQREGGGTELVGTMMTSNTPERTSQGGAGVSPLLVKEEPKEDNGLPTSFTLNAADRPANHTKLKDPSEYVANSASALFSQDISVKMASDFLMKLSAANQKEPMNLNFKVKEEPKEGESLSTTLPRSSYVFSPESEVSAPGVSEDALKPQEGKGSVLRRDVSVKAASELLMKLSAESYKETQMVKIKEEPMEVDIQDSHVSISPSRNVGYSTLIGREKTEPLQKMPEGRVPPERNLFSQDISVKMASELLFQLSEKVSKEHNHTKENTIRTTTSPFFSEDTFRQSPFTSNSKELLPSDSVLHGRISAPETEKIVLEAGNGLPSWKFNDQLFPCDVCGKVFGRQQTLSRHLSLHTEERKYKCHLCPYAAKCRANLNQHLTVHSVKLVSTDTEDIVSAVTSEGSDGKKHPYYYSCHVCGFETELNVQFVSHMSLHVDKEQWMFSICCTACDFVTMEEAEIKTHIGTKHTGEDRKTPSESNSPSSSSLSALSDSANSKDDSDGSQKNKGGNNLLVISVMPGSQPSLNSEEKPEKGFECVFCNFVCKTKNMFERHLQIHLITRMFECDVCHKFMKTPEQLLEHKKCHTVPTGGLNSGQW
Described as above. The following applies: protein: recombinant, tags: HaloTag removed by TEV cleavage, label: 32P (T4 PNK end label).

Data set [5] deals with T3, ZNF827 ZnFΔ4-9 (Homo sapiens, UniProt Q17R98 1-816+1070-1081, internal_change).
T3 sequence: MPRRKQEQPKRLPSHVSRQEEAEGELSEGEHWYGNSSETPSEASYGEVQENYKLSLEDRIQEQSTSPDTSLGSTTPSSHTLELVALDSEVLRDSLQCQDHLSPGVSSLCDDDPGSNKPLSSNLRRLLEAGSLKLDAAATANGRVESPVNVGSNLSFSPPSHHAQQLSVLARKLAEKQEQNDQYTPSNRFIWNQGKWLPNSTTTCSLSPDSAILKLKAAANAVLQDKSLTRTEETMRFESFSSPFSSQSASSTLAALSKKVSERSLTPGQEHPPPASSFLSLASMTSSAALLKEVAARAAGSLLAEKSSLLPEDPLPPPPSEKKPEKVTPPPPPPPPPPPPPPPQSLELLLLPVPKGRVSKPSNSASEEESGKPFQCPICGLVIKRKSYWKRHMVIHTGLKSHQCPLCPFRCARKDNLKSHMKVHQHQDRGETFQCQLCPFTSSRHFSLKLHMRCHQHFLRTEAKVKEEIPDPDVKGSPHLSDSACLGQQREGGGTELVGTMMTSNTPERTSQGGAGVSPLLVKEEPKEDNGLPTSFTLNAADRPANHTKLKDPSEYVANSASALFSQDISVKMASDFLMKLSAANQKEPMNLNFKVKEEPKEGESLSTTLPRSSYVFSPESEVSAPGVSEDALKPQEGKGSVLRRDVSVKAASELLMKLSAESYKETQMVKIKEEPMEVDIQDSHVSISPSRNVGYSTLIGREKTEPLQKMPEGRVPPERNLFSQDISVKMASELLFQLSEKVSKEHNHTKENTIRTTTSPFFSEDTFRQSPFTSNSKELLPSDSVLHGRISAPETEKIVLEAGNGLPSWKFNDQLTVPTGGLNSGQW
The description is as above. The following applies: protein: recombinant; tags: HaloTag removed by TEV cleavage; label: 32P (T4 PNK end label); blunt.

B1: ssDNA pentaprobe (ssDNA)
DNA: CGCTCTATTCTACTGTCCTGTGCATTCAATCGTTGAGTTCGATCTAGTCTCGTCTAACCCTCCCCTGCTCCGCTGGTCTGGCCTCGCCTATCCTACCCAT
Take B1: the binding result is recorded as “binds” in data set [1], “no binding” in data set [2], “binds” in data set [3] and “binds” in data set [4].

B2: dsDNA pentaprobe (dsDNA)
DNA 1: CGCTCTATTCTACTGTCCTGTGCATTCAATCGTTGAGTTCGATCTAGTCTCGTCTAACCCTCCCCTGCTCCGCTGGTCTGGCCTCGCCTATCCTACCCAT
DNA 2: ATGGGTAGGATAGGCGAGGCCAGACCAGCGGAGCAGGGGAGGGTTAGACGAGACTAGATCGAACTCAACGATTGAATGCACAGGACAGTAGAATAGAGCG
Take B2: the binding result in data set [5], in data set [2] (blunt) and in data set [4] (blunt) was “no binding” throughout.
